Assays:
[1] = target: factor V (FV) (human (endogenous in human plasma))
[2] = target: mannan binding lectin-associated serine proteases (MASPs) (human (endogenous in human serum))
[3] = target: mannan-binding lectin (MBL) (human (endogenous in human serum)) (UniProt P11226)
[4] = target: mannan-binding lectin (MBL) (human (endogenous in human serum)) (UniProt P11226); remark: listed apart in the source

UniProt P11226, sequence (P11226 21-248): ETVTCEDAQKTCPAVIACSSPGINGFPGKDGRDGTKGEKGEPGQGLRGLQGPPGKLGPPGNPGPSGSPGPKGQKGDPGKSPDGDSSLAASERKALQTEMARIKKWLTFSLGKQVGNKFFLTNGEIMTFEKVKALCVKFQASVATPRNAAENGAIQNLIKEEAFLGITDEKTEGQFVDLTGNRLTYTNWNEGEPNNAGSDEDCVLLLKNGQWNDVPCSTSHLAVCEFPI

## D70-L104 Salp14 (from UniProt Q95WY7 91-125) (peptide)
[1]
  decrease of prothrombinase activity in the FV(a) inhibition assay (1/1000 diluted human plasma, 20 pM FXa, 100 nM peptide): 40 % decrease
[2]
  EC50 of inhibition of lectin pathway activation in human serum (mannan-coated wells, ELISA, C4b deposition): 17 µM

## tick salivary lectin pathway inhibitor (TSLPI) from Ixodes scapularis (natural protein)
[3]
  EC50 of inhibition of lectin pathway activation in human serum (mannan-coated wells, ELISA, C4b deposition): 25 µM
[4]
  EC50 of inhibition of MBL deposition on mannan-coated wells from human serum (ELISA, anti-MBL antibody): 90 µM

B1: BaSO4-adsorbing protein 1 (BSAP1) from Ornithodoros savignyi (natural protein)
chain: MDSEFPCPRKQQPAGNSECSYYCEMNGQWKLGKFQNGARCDYNAVKDGVCNEGLCYASGDSASNTQNQGGSRRQENEDQGDDEWDRK
[3]
  EC50 of inhibition of lectin pathway activation in human serum (mannan-coated wells, ELISA, C4b deposition): 8 µM
[4]
  EC50 of inhibition of MBL deposition on mannan-coated wells from human serum (ELISA, anti-MBL antibody): 26 µM

From PMC8294578
